{"source": "paper PMC4523205", "about": "“Human Non-neutralizing HIV-1 Envelope Monoclonal Antibodies Limit the Number of Founder Viruses during SHIV Mucosal Infection in Rhesus Macaques” (PLoS Pathogens, 2015)", "target": "T1, Env of SHIV-SF162P3, on virions (SHIV-SF162P3, env from HIV-1 SF162 …, UniProt P19550, strain)", "T1 construct": "HIV-1 SF162-derived envelope glycoprotein (gp120/gp41) of SHIV-SF162P3, as it stands on virus particles; source: virus stock", "experiment": "infectious virus capture assay (plate based); antibody mixed with viral stock, immune complexes held on plates coated with anti-human IgG, captured infectious virus read with indicator cells (RLU)", "conditions": "one partner purified"}
{"binder": "7B2 IgG1_AAA (antibody, V domains shown, variable region as in the heavy chain of m1 (PDB 4YDV, heavy chain); as the light chain of m1 (PDB 4YDV, light chain); IgG1 with the Fc changes S298A, E333A, K334A; also called 7B2_AAA; source: CHO cells (Catalent, Somerset, NJ), recombinant; copies: 2 + 2) VH: QVQLVQSGGGVFKPGGSLRLSCEASGFTFTEYYMTWVRQAPGKGLEWLAYISKNGEYSKYSPSSNGRFTISRDNAKNSVFLQLDRLSADDTAVYYCARADGLTYFSELLQYIFDLWGQGARVTVSS VL: DIVLAQSPDSLAVSPGERATIHCKSSQTLLYSSNNRHSIAWYQQRPGQPPKLLLYWASMRLSGVPDRFSGSGSGTDFTLTINNLQAEDVAIYYCHQYSSHPPTFGHGTRVELR", "values": [{"measurement": "binding result", "value": "binds"}]}
